Source: article doi:10.1101/2021.05.05.442573, “Relief of ParB autoinhibition by parS DNA catalysis and ParB recycling by CTP hydrolysis promote bacterial centromere assembly” (bioRxiv, 2021)
Substitutions are numbered along the chain they refer to. Names may count otherwise.

B1: ParB(R105C, H133C), purified (natural protein, B. subtilis, UniProt P26497 1-282, looked up)
chain: MAKGLGKGINALFNQVDLSEETVEEIKIADLRPNPYQPRKHFDDEALAELKESVLQHGILQPLIVRKSLKGYDIVAGERRFRAAKLAGLDTVPAIVRELSEALMCEIALLENLQREDLSPLEEAQAYDSLLKCLDLTQEQLAKRLGKSRPHIANHLRLLTLPENIQQLIAEGTLSMGHGRTLLGLKNKNKLEPLVQKVIAEQLNVRQLEQLIQQLNQNVPRETKKKEPVKDAVLKERESYLQNYFGTTVNIKRQKKKGKIEIEFFSNEDLDRILELLSERES
notes: Purification as in Soh et al., 2019; source: E. coli BL21-Gold (DE3), untagged, purified (ammonium sulfate, heparin, HiTrap SP, Superdex 200)
B2: ParB(T22C, E111Q), purified (natural protein, B. subtilis, UniProt P26497 1-282, looked up)
chain: B1 chain with T22C, C105R, E111Q, C133H
notes: the combination is not spelled out for the purified protein; also called EQ mutant; source: E. coli BL21-Gold (DE3), untagged, purified (ammonium sulfate, heparin, HiTrap SP, Superdex 200)
B3: ParB(A102C, H133C), purified (natural protein, B. subtilis, UniProt P26497 1-282, looked up)
chain: B1 chain with A102C, C105R
notes: as for B1
B4: ParB(T22C, E78Q), purified (natural protein, B. subtilis, UniProt P26497 1-282, looked up)
chain: B1 chain with T22C, E78Q, C105R, C133H
notes: as for B2
B5: ParB(T22C), purified (natural protein, B. subtilis, UniProt P26497 1-282, looked up)
chain: B1 chain with T22C, C105R, C133H
notes: as for B1

Biological target: the molecule itself
Test: cross-linking; in vitro BMOE cysteine cross-linking of purified ParB (10 uM monomer, 1 mM BMOE, 5 min RT; 150 mM NaCl, 50 mM Tris-HCl pH 7.5, 5 mM MgCl2); without ligand, with 1 mM CTP or CTPγS, with 1 uM 40 bp parS DNA, or with both; SDS-PAGE, Coomassie

Row | Protein | binding result
1 | B1 | binds
2 | B2 | binds
3 | B3 | binds
4 | B4 | binds
5 | B5 | binds
